Experimental data published in patent US5223421A, “Identification of methionine Nα-acetyltransferase” (The General Hospital Corporation, priority 1990, dated 1993).

Experiments:
[1] = target: T1, AAA1 N^α -acetyltransferase (N^α -AT) (Saccharomyces cerevisiae, UniProt P07347+P12945); test: Relative activity of N^α -AT for N^α -acetylation of synthetic peptides; assay type: biochemical
T1 sequence (P12945 2-854 limits assumed): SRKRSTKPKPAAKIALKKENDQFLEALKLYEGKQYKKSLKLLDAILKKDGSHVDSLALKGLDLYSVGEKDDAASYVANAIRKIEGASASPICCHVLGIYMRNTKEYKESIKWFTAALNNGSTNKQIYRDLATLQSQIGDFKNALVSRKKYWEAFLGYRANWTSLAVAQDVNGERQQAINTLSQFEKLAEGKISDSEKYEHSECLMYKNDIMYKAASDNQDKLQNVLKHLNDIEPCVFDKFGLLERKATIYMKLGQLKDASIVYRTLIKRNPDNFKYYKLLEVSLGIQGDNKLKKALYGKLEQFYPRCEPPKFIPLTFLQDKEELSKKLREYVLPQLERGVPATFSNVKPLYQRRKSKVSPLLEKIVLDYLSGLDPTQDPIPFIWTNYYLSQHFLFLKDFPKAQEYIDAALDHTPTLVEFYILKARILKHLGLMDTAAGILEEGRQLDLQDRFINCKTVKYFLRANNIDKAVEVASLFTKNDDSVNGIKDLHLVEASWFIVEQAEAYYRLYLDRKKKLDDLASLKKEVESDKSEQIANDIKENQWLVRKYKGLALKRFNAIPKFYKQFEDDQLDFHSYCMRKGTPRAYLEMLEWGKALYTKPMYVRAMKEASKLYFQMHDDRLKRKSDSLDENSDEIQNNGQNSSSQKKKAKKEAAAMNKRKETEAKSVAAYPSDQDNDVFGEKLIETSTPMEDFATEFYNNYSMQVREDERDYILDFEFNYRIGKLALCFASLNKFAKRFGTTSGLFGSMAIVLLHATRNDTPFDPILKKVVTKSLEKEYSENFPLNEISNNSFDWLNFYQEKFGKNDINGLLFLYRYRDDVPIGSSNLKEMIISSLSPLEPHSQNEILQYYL
T1 sequence (P07347 1-238): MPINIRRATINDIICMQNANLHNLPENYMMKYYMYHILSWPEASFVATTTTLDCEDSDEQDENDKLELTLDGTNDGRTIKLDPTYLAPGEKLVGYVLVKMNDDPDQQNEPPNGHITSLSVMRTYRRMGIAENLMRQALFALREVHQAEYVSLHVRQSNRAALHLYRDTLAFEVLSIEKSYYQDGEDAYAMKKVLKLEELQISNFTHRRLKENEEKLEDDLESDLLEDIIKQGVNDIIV
Protocol: (§1) N^α -acetylt[…] was determined as previously described [Lee et al., J. Biol. Chem. 263:14948-14955 (1988)]. Aliquots of the lysate or chromatographic fractions were added to 1.5 ml Eppendorf tubes containing a reaction mixture of 50 mM HEPES, pH 7.4, 150 mM KCl, 1 mM DTT, 25 μM [^3 H] acetyl coenzyme A (0.5 μCi) and 50 μM synthetic peptide with an adjusted final volume of 100 μl. The assay mixture was incubated at 30° C. for 30 min. The reaction was stopped by adding 17 μl of 0.5M acetic acid and chilled in an ice bath. The reaction samples were filtered through SP membrane discs (Cuno) (previously pre-swollen in 0.5M acetic acid), and then washed three times with 1 ml of 0.5M acetic acid on a Millipore 1225 sampling manifold. The partially dried membranes were placed in scintillation cocktail and counted with a Beckman LS 3801 scintillation counter. One unit of activity was defined as the amount of enzyme able to transfer 1 pmol of [^3 H] acetyl group from [^3 H] acetyl coenzyme A to synthetic peptide per min under standard enzyme assay conditions defined above.
(§2) In order to compare the relative specificity and activity of the methionine N^α -acetylt[…] (M-N^α -AT) of the present invention with the specificity and activity of the AAA1 N^α -acetyltransferase (N^α -AT) of Lee, F.-J. S., et al., J. Bacteriol. 171, (1989), U.S. Patent Application of John A. Smith, and Fang-Jen S. Lee, filed Oct. 25, 1989, entitled "ISOLATION OF STRAINS OF SAC[…] ALTERED N^α -ACETYLT[…]" (which references have been incorporated herein by reference) synthetic peptides were prepared. These peptides were assessed for their ability to serve as substrates for the two enzymes. In Table 6, the effect of the amino terminal amino acid on activity is investigated; in Table 7, the effect of the penultimate amino terminal amino acid on activity is investigated.

[2] = system: methionine N^α -acetyltransferase (M-N^α -AT); test: Relative activity of M-N^α -AT for N^α -acetylation of synthetic peptides; assay type: biochemical, Saccharomyces cerevisiae; design: tested at 50 µM; conditions: Table 7, influence of the penultimate amino terminal residue
Protocol: as §1, §2

[3] = Table 6, influence of the amino terminal residue
[4] = Table 7, influence of the penultimate amino terminal residue

| Substance | Activity (%) (mean activity ± S.D.) N^a -AT [1, 3] | Activity (%) (mean activity ± S.D.) N^a -AT [1, 4] | Activity (%) (mean activity ± S.D.) M-N^a -AT [2] |
| --- | --- | --- | --- |
| SYSMEHFRWGKPVGKKRRPVKVYP | 100 ± 5% | 100 ± 5% | 0% |
| SIPETQKGVIFYESHGKLEYKDIP (SIPETQKGVIFYESHGKLEYKDIP) [Alcohol dehydrogenase (1-24) (Yeast)] | 102 ± 5% | 102 ± 5% | 0% |
